Laboratory results published in publication PMC3290565, “Pentachlorophenol Induction of the Pseudomonas aeruginosa mexAB-oprM Efflux Operon: Involvement of Repressors NalC and MexR and the Antirepressor ArmR”.

Tests used:
[1] = target: T1, NalC-His (Pseudomonas aeruginosa K767, UniProt Q9HXS0 1-213); experiment: EMSA; 300-2000 ng NalC-His, 40 ng DNA; conditions: protein: recombinant; tags: C-terminal His (pET23a); chain copies: 2; blunt
[2] = target: T1, NalC-His; experiment: EMSA; data not shown; conditions: protein: recombinant; tags: C-terminal His (pET23a); chain copies: 2

B1: NalC-1 (endpoints III) (dsDNA)
DNA 1: TGGTCATTTAAGAACTGTATCGTACAGTACTGTTTTGGCAA
DNA 2: TTGCCAAAACAGTACTGTACGATACAGTTCTTAAATGACCA
binding result [1]: binds

B2: NalC-2 (endpoints IV) (dsDNA)
DNA 1: TTGGCAAGCACTTCCGCTCATTCCTCCGCCTTGCCTCCCGC
DNA 2: GCGGGAGGCAAGGCGGAGGAATGAGCGGAAGTGCTTGCCAA
binding result [1]: no binding

B3: 21-bp inverted repeat only (dsDNA)
DNA 1: AGAACTGTATCGTACAGTACT
DNA 2: AGTACTGTACGATACAGTTCT
binding result [2]: no binding
